For orientation: stoichiometry N means a count of units in the complex or per binding partner.

From publication PMC5408658, “In vitro characterization of six STUB1 variants in spinocerebellar ataxia 16 reveals altered structural properties for the encoded CHIP proteins” (Bioscience Reports, 2017) come the findings set out here.

Where a chain is given by its changes, count along the chain named. Names may count otherwise.

Data set [1] has as its target T1, His-maltose-binding protein (MBP)-CHIP fusion protein, wild type (human), Q9UNE7.
T1 chain: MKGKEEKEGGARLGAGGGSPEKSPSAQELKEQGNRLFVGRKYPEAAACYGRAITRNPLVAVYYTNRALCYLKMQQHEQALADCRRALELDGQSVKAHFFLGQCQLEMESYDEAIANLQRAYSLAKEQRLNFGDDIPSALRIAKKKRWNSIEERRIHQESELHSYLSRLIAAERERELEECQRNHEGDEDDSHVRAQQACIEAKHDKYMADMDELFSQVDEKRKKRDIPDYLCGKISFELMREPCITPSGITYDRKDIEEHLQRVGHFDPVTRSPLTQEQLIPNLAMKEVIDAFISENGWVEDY
Nature of the data set: SEC; 1 mg MBP-CHIP fusion protein, Superdex 200 Increase 10/300 GL, 20 mM NaH2PO4 pH 7.4, 0.3 ml/min, 4°C; self-association (monomers, dimers, higher oligomers). The following applies: remark: other sources report otherwise. For orientation: In gel filtration, larger molecules generally elute earlier.

Data set [2] concerns the molecule itself. Put plainly: native gel or EMSA; 10 ug MBP fusion protein on a 12% NativePAGE Bis-Tris gel, Coomassie Blue staining; self-association (oligomeric states).
Data set [3] concerns the molecule itself. Nature of the data set: SEC; 1 mg MBP-CHIP fusion protein, Superdex 200 Increase 10/300 GL, 20 mM NaH2PO4 pH 7.4, 0.3 ml/min, 4°C; self-association (monomers, dimers, higher oligomers).

B1: His-maltose-binding protein (MBP)-CHIP fusion protein, wild type, Q9UNE7-1 1-303 (enzyme)
chain: T1 chain
Turning to B1, in data set [1], the stoichiometry N is 2.

B2: His-MBP-CHIP fusion protein, K145Q (enzyme, human, UniProt Q9UNE7-1 1-303, looked up)
chain: T1 chain with K145Q
notes: CHIP (STUB1), human, full-length cDNA in pETM-41, pathogenic SCAR16 variant K145Q; Variant found in patients; made by site-directed mutagenesis; also called MBP-CHIP K145Q; source: E. coli BL21-CodonPlus (DE3)-RP, purified (Ni-NTA)
For the molecule B2, in data set [2], the binding result was “binds”.

B3: His-MBP-CHIP fusion protein, M211I (enzyme, human, UniProt Q9UNE7-1 1-303, looked up)
chain: T1 chain with M211I
notes: CHIP (STUB1), human, full-length cDNA in pETM-41, pathogenic SCAR16 variant M211I; Variant found in patients; made by site-directed mutagenesis; also called MBP-CHIP M211I; source: E. coli BL21-CodonPlus (DE3)-RP, purified (Ni-NTA)
For the molecule B3, the binding result in data set [2] was “binds”.

B4: His-MBP-CHIP fusion protein, N65S (enzyme, human, UniProt Q9UNE7-1 1-303, looked up)
chain: T1 chain with N65S
notes: CHIP (STUB1), human, full-length cDNA in pETM-41, pathogenic SCAR16 variant N65S; Variant found in patients; made by site-directed mutagenesis; also called CHIP-N65S; MBP-CHIP N65S; source: E. coli BL21-CodonPlus (DE3)-RP, purified (Ni-NTA)
On to B4, for which, in data set [3], the “stoichiometry N” value came to 2.

B5: His-MBP-CHIP fusion protein, T246M (enzyme, human, UniProt Q9UNE7-1 1-303, looked up)
chain: T1 chain with T246M
notes: CHIP (STUB1), human, full-length cDNA in pETM-41, pathogenic SCAR16 variant T246M; Variant found in patients; made by site-directed mutagenesis; also called CHIP-T246M; MBP-CHIP T246M; source: E. coli BL21-CodonPlus (DE3)-RP, purified (Ni-NTA)
For B5, the binding result in data set [2] is “binds”.

B6: His-MBP-CHIP fusion protein, S236T (enzyme, human, UniProt Q9UNE7-1 1-303, looked up)
chain: T1 chain with S236T
notes: CHIP (STUB1), human, full-length cDNA in pETM-41, pathogenic SCAR16 variant S236T; Variant found in patients; made by site-directed mutagenesis; also called MBP-CHIP S236T; source: E. coli BL21-CodonPlus (DE3)-RP, purified (Ni-NTA)
B6: the binding result in data set [2] was “binds”.
